# Results reported in patent US9579358B2, “Compositions for binding to amyloid proteins” (LANCASTER UNIVERSITY BUSINESS ENTERPRISES LIMITED, priority 2011, dated 2017).
# Non-standard residues stand in square brackets, D forms with d. No end group written: not given here.
# Experiments:
# Aβ42 fibrils = biological target: T1, Aβ42 fibrils (Homo sapiens, UniProt P05067); experiment: Surface plasmon resonance binding to immobilized Aβ42 fibrils; conditions: read-out: Kd, binding to Aβ fibrils
# T1 construct: purchased rPeptide, Bogart, Ga., USA
# T1 sequence (P05067 672-713 limits assumed): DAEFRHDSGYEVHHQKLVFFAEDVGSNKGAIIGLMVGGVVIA
# Source text: SPR (Surface Plasmon Resonance) is a technique that can be used to measure the affinity of a substance for a substrate. The substrate (in this case Aβ fibrils) is bound to a solid surface and excited using a laser light source. The compound to be tested (e.g. PINPs) is allowed to flow over the bound substrate in suspension/solution and the emission spectra of the substrate will change if the compound binds. A second solution, without the test compound, can then added to elute any bound compound and the emission spectra may be observed to note loss of bound compound from the substrate. For a specific example regarding peptide binding to Aβ see reference (30).
# In the examples presented here, The substance is introduced at a flow rate of 30 uL/min for 5 minute over the immobilized substrate. There is a spike in the signal which is due to the introduction of solvent without PINPs to show removal of the peptide bound to the Aβ fibrils. There are two plots related to addition of peptide at two different concentrations, 1 and 3 μM, plus a computer generated fitted curve for each one.
# These experiments were conducted using a Sensi Q semi-automatic SPR machine (ICx Nomadics). This apparatus has two parallel flow cells; one was used to immobilize Aβ42 fibrils while the other was used as “reference” (empty surface). A COOH5 sensor chip (ICx Nomadics) was employed for this purpose and the peptide was immobilized by amine coupling chemistry. Briefly, after surface activation, the peptide preparation was diluted to 10 μM in acetate buffer (pH 4.0) and then injected for 5 min at a flow rate of 30 μL/min. Any remaining activated groups were blocked with ethanolamine (pH 8.0). The final immobilization level was ˜5,000 resonance units (1 RU=1 pg of protein/mm^2). The empty “reference” surface was prepared in parallel using the same immobilization procedure, but without addition of the peptide. Sensorgrams were then obtained via injection of three different concentrations of RI-OR2-TAT (1, 3 and 6 μM), as well as the vehicle (PBS with 0.005% Tween 20), over the immobilized ligand or control surface, in parallel.
# These experiments were conducted using a Sensi Q semi-automatic SPR machine (ICx Nomadics). This apparatus has two parallel flow cells; one was used to immobilize Aβ(1-42) fibrils (see Aβ peptides) while the other was used as “reference” (empty surface). A COOH5 sensor chip (ICx Nomadics) was employed for this purpose and the peptide was immobilized by amine coupling chemistry. Briefly, after surface activation, the peptide preparations was diluted to 10 μM in acetate buffer (pH 4.0) and then injected for 5 min at a flow rate of 30 μL/min. Any remaining activated groups were blocked with ethanolamine (pH 8.0). The final immobilization level was 5000 resonance units (1 RU=1 pg of protein/mm^2). The empty “reference” surface was prepared in parallel using the same immobilization procedure, but without addition of the peptide. Sensorgrams were then obtained via injection of two different concentrations of RI-OR2 TAT/peptide liposome (1 and 3 μM), as well as the vehicle (PBS with 0.005% Tween 20), over the immobilized ligand or control surface, in parallel, at the same time.
# Aβ42 [1] = biological target: T2, Aβ42 (Homo sapiens, UniProt P05067); experiment: Sandwich immunoassay (6E10) for Aβ oligomers; format: biochemical; conditions: Aβ1-42 12.5 μM
# T2 construct: Recombinant Aβ42, Ultrapure, was purchased from rPeptide, Bogart, Ga., USA; purchased rPeptide, Bogart, Ga., USA
# T2 sequence (P05067 672-713 limits assumed): as above
# [2] = Nanoparticle Tracking Analysis (NTA); format: physicochemical
# Source text: The particles were investigated by Nanoparticle Tracking Analysis (NTA) which is a method for visualizing and analyzing particles in liquids that can be used to determine the size of individual particles by tracking their rate of Brownian motion.
# Aβ42 [3] = biological target: T2, Aβ42; experiment: Thioflavin T (ThT) assay for Aβ fibrils; format: biochemical; conditions: for % of control: Aβ alone = 100
# Description: This method was the same as that published previously. Briefly, 60 μl samples of solutions containing Aβ42 (25 μM), ThT (15 μM) and between 0 and 125 μM RI-OR2 or RI-OR2-TAT, in 10 mM phosphate buffered saline (PBS), pH 7.4, were incubated in sealed, black, clear-bottomed 384-well plates (Corning). ThT fluorescence was monitored every 10 mins (λex=442 nm, λem=483 nm) for 48 h at 30° C. in a Biotek Synergy 2 plate reader.
# SHSY-5Y cells = experiment: MTT cell viability assay, protection from pre-aggregated Aβ1-42; format: cell-based; conditions: for Absorption units (560 nm): control with Abeta 2.467, no Abeta 3.608
# Description: SHSY 5Y cells were grown and maintained in DMEM (Dulbecco's Modified Eagle Medium) supplemented with FBS under standard mammalian cell culture conditions. During treatment cells were kept in Optimem plus or minus peptide liposomes in 96 well plates at 20000 cells per well for 24 hours, again under standard culture conditions. For cell protection assays 5 μM of pre-aggregated Aβ1-42 was added at the same time as peptide liposomes. Cell viability was assessed for four wells for each treatment using a Promega CellTiter assay kit.
substance,measurement,setting,value
PINPs: RI-OR2-TAT covalently attached to nanoliposomes (cholesterol:sphingomyelin [1:1] with 2.5% maleimide) via an additional cysteine (Ac-[dR]G[dF][dF][dV][dL][dK]G[dR][dR][dR][dR][dQ][dR][dR][dK][dK][dR]G[dY][dC]; not fully specified (residue 21); also: C-terminal D-Cys coupled via its thiol to maleimide lipid of nanoliposome),Kd,Aβ42 fibrils,14 to 44 nM
same,inhibition of oligomer formation,Aβ42 [1]; 1:100 molar ratio of PINPS (total lipids):Aβ,still substantial
same,"immunoassay signal (time-resolved fluorescence, europium)","Aβ42 [1]; PINPs 1:1, 0 hours",9494 relative fluorescence units
same,"immunoassay signal (time-resolved fluorescence, europium)","Aβ42 [1]; PINPs 1:1, 2 hours",17524 relative fluorescence units
same,"immunoassay signal (time-resolved fluorescence, europium)","Aβ42 [1]; PINPs 1:1, 4 hours",62958 relative fluorescence units
same,"immunoassay signal (time-resolved fluorescence, europium)","Aβ42 [1]; PINPs 1:1, 8 hours",116308 relative fluorescence units
same,"immunoassay signal (time-resolved fluorescence, europium)","Aβ42 [1]; PINPs 1:1, 24 hours",178685 relative fluorescence units
same,"immunoassay signal (time-resolved fluorescence, europium)","Aβ42 [1]; PINPs 1:1, 48 hours",122098 relative fluorescence units
same,"immunoassay signal (time-resolved fluorescence, europium)","Aβ42 [1]; PINPs 1:10, 0 hours",9666 relative fluorescence units
same,"immunoassay signal (time-resolved fluorescence, europium)","Aβ42 [1]; PINPs 1:10, 2 hours",33960 relative fluorescence units
same,"immunoassay signal (time-resolved fluorescence, europium)","Aβ42 [1]; PINPs 1:10, 4 hours",63899 relative fluorescence units
same,"immunoassay signal (time-resolved fluorescence, europium)","Aβ42 [1]; PINPs 1:10, 8 hours",77883 relative fluorescence units
same,"immunoassay signal (time-resolved fluorescence, europium)","Aβ42 [1]; PINPs 1:10, 24 hours",95760 relative fluorescence units
same,"immunoassay signal (time-resolved fluorescence, europium)","Aβ42 [1]; PINPs 1:10, 48 hours",198806 relative fluorescence units
same,"immunoassay signal (time-resolved fluorescence, europium)","Aβ42 [1]; PINPs 1:50, 0 hours",7833 relative fluorescence units
same,"immunoassay signal (time-resolved fluorescence, europium)","Aβ42 [1]; PINPs 1:50, 2 hours",124190 relative fluorescence units
same,"immunoassay signal (time-resolved fluorescence, europium)","Aβ42 [1]; PINPs 1:50, 4 hours",111776 relative fluorescence units
same,"immunoassay signal (time-resolved fluorescence, europium)","Aβ42 [1]; PINPs 1:50, 8 hours",177380 relative fluorescence units
same,"immunoassay signal (time-resolved fluorescence, europium)","Aβ42 [1]; PINPs 1:50, 24 hours",173198 relative fluorescence units
same,"immunoassay signal (time-resolved fluorescence, europium)","Aβ42 [1]; PINPs 1:50, 48 hours",99592 relative fluorescence units
same,"immunoassay signal (time-resolved fluorescence, europium)","Aβ42 [1]; PINPs 1:100, 0 hours",3766 relative fluorescence units
same,"immunoassay signal (time-resolved fluorescence, europium)","Aβ42 [1]; PINPs 1:100, 2 hours",78306 relative fluorescence units
same,"immunoassay signal (time-resolved fluorescence, europium)","Aβ42 [1]; PINPs 1:100, 4 hours",82278 relative fluorescence units
same,"immunoassay signal (time-resolved fluorescence, europium)","Aβ42 [1]; PINPs 1:100, 8 hours",141932 relative fluorescence units
same,"immunoassay signal (time-resolved fluorescence, europium)","Aβ42 [1]; PINPs 1:100, 24 hours",154889 relative fluorescence units
same,"immunoassay signal (time-resolved fluorescence, europium)","Aβ42 [1]; PINPs 1:100, 48 hours",131004 relative fluorescence units
same,average diameter,[2],130 nm
same,reduction in aggregate formation,"Aβ42 [3]; 1:50 molar ratio of PINPS:Aβ, 48 hours, Aβ1-42 25 μM",~50%
same,ThT signal by 48 hours,Aβ42 [3]; 1:500 molar ratio of PINPs (total lipids):Aβ,below that of Aβ1-42 alone
same,RFU at 48 hours,"Aβ42 [3]; 1 to 1 PINPS (total lipids):Aβ, Aβ1-42 25 μM",13817 RFU
same,% of control,"Aβ42 [3]; 1 to 1 PINPS:Aβ, 48 hours",7.1%
same,RFU at 48 hours,"Aβ42 [3]; 1 to 5 PINPS (total lipids):Aβ, Aβ1-42 25 μM",14450 RFU
same,% of control,"Aβ42 [3]; 1 to 5 PINPS:Aβ, 48 hours",7.4%
same,RFU at 48 hours,"Aβ42 [3]; 1 to 10 PINPS (total lipids):Aβ, Aβ1-42 25 μM",15664 RFU
same,% of control,"Aβ42 [3]; 1 to 10 PINPS:Aβ, 48 hours",8.1%
same,RFU at 48 hours,"Aβ42 [3]; 1 to 50 PINPS (total lipids):Aβ, Aβ1-42 25 μM",85107 RFU
same,% of control,"Aβ42 [3]; 1 to 50 PINPS:Aβ, 48 hours",44.0%
same,RFU at 48 hours,"Aβ42 [3]; 1 to 100 PINPS (total lipids):Aβ, Aβ1-42 25 μM",132977 RFU
same,% of control,"Aβ42 [3]; 1 to 100 PINPS:Aβ, 48 hours",68.8%
same,RFU at 48 hours,"Aβ42 [3]; 1 to 500 PINPS (total lipids):Aβ, Aβ1-42 25 μM",165060 RFU
same,% of control,"Aβ42 [3]; 1 to 500 PINPS:Aβ, 48 hours",85.5%
same,RFU at 48 hours,"Aβ42 [3]; 1 to 1000 PINPS (total lipids):Aβ, Aβ1-42 25 μM",171555 RFU
same,% of control,"Aβ42 [3]; 1 to 1000 PINPS:Aβ, 48 hours",88.8%
same,RFU at 48 hours,"Aβ42 [3]; 1 to 5000 PINPS (total lipids):Aβ, Aβ1-42 25 μM",148012 RFU
same,% of control,"Aβ42 [3]; 1 to 5000 PINPS:Aβ, 48 hours",76.6%
same,RFU at 48 hours,"Aβ42 [3]; 1 to 10000 PINPS (total lipids):Aβ, Aβ1-42 25 μM",204059 RFU
same,% of control,"Aβ42 [3]; 1 to 10000 PINPS:Aβ, 48 hours",105%
same,RFU at 48 hours,"Aβ42 [3]; 1 to 50000 PINPS (total lipids):Aβ, Aβ1-42 25 μM",199514 RFU
same,% of control,"Aβ42 [3]; 1 to 50000 PINPS:Aβ, 48 hours",103%
same,RFU at 48 hours,"Aβ42 [3]; 1 to 100000 PINPS (total lipids):Aβ, Aβ1-42 25 μM",188616 RFU
same,% of control,"Aβ42 [3]; 1 to 100000 PINPS:Aβ, 48 hours",97.0%
same,Absorption units (560 nm),SHSY-5Y cells; PINPs 0.01 μM plus 5 μM pre-aggregated Aβ1-42,3.370 Absorption units
same,Absorption units (560 nm),SHSY-5Y cells; PINPs 0.1 μM plus 5 μM pre-aggregated Aβ1-42,3.478 Absorption units
same,Absorption units (560 nm),SHSY-5Y cells; PINPs 1 μM plus 5 μM pre-aggregated Aβ1-42,3.252 Absorption units
same,Absorption units (560 nm),SHSY-5Y cells; PINPs 10 μM plus 5 μM pre-aggregated Aβ1-42,3.538 Absorption units
same,cell viability in the presence of pre-aggregated Aβ1-42,"SHSY-5Y cells; PINPs at 10, 1, 0.1, 0.01 μM",cell viability remained near that of untreated cells
